Data taken from patent US20040209282A1.

Assays:
[1] = molecular target: 38C13 IgM surface receptor (idiotype receptor) of 38C13 B lymphoma cells; assay: cell capture microarray, previously frozen 38C13 cells, microscopy
[2] = molecular target: 38C13 IgM surface receptor (idiotype receptor) of 38C13 B lymphoma cells; assay: cell capture microarray, 38C13 cells growing in culture, no washing, microscopy
[3] = molecular target: 38C13 IgM surface receptor (idiotype receptor) of 38C13 B lymphoma cells; assay: antibody microarray probed with 38C13 cell extract, goat anti-mouse IgM-HRP detection
[4] = molecular target: purified IgM antibody (38C13); assay: antibody microarray on FAST slide, goat anti-mouse IgM-HRP detection, chemiluminescence

Substance: S1C5 anti-idiotype monoclonal antibody (anti-IgM antibody)
- lowest printed antibody concentration at which bound cells were detected [1]: 6.25 µg/mL
- lowest printed antibody concentration at which bound cells were detected [2]: 3.12 µg/mL
- extract dilution at which 38C13 IgM was detected (fold dilution (1:x)) [3]: 2000
- lowest printed S1C5 concentration at which 38C13 IgM of the extract was detected [3]: 50 µg/mL
- IgM concentration at which a strong signal was seen [4]: 0.1 µg/mL
- lowest spotted S1C5 concentration giving a strong signal [4]: 25 µg/mL
